B1: Snf5 (natural protein, S. cerevisiae (endogenous in yeast), UniProt P18480 1-905, looked up)
chain: MNNQPQGTNSVPNSIGNIFSNIGTPSFNMAQIPQQLYQSLTPQQLQMIQQRHQQLLRSRLQQQQQQQQQTSPPPQTHQSPPPPPQQSQPIANQSATSTPPPPPAPHNLHPQIGQVPLAPAPINLPPQIAQLPLATQQQVLNKLRQQAIAKNNPQVVNAITVAQQQVQRQIEQQKGQQTAQTQLEQQRQLLVQQQQQQQLRNQIQRQQQQQFRHHVQIQQQQQKQQQQQQQHQQQQQQQQQQQQQQQQQQQQQQQQQQQQQQQQQQQQQGQIPQSQQVPQVRSMSGQPPTNVQPTIGQLPQLPKLNLPKYQTIQYDPPETKLPYPTYWSDKKADTDTLLYEQIIQRDKINKYSLIRETNGYDPFSIYGFSNKEYISRLWHTLKYYQDLKNTRMKSITSTSQKIPSASIWGNGYSGYGNGITNTTTRVIPQVEVGNRKHYLEDKLKVYKQAMNETSEQLVPIRLEFDQDRDRFFLRDTLLWNKNDKLIKIEDFVDDMLRDYRFEDATREQHIDTICQSIQEQIQEFQGNPYIELNQDRLGGDDLRIRIKLDIVVGQNQLIDQFEWDISNSDNCPEEFAESMCQELELPGEFVTAIAHSIREQVHMYHKSLALLGYNFDGSAIEDDDIRSRMLPTITLDDVYRPAAESKIFTPNLLQISAAELERLDKDKDRDTRRKRRQGRSNRRGMLALSGTSASNTSMNGVHNTVAAGNASSLPPGEILLPDIADIPRTFRTPVPSTLMPGGVDVGPSVESYELRNTTTYKSRPDRPKPVSPPCYIIDHIPGHSLLLSIKLPGKVNTKEEFAAAPNDTSSGTNAMLPSPESLKTKLNSNIRAGVTIPSIPNPIANHTVTNSPNPTLQPVIPGGAASKSVPTPSLPIAPPVAPHDSEATLLTNSNNGSSNNNTQNT
B2: Swi1 (natural protein, S. cerevisiae (endogenous in yeast), UniProt P09547 1-1314, looked up)
chain: MDFFNLNNNNNNNNTTTTTTTTNNNNTNNNNTNNNNNPANNTNNNNSTGHSSNTNNNTNNNNTNTGASGVDDFQNFFDPKPFDQNLDSNNNNSNSNNNDNNNSNTVASSTNFTSPTAVVNNAAPANVTGGKAANFIQNQSPQFNSPYDSNNSNTNLNSLSPQAILAKNSIIDSSNLPLQAQQQLYGGNNNNNSTGIANDNVITPHFITNVQSISQNSSSSTPNTNSNSTPNANQQFLPFNNSASNNGNLTSNQLISNYAASNSMDRSSSASNEFVPNTSDNNNNSNNHNMRNNSNNKTSNNNNVTAVPAATPANTNNSTSNANTVFSERAAMFAALQQKQQQRFQALQQQQQQQQNQQQQNQQPQQQQQQQQNPKFLQSQRQQQQRSILQSLNPALQEKISTELNNKQYELFMKSLIENCKKRNMPLQSIPEIGNRKINLFYLYMLVQKFGGADQVTRTQQWSMVAQRLQISDYQQLESIYFRILLPYERHMISQEGIKETQAKRIFLQQFLQELLKKVQQQQQAAALANANNNINSASSAPTPAAPGASVPATAAPGTEAGIVPVSANTPKSLNSNININVNNNNIGQQQVKKPRKQRVKKKTKKELELERKEREDFQKRQQKLLEDQQRQQKLLLETKLRQQYEIELKKLPKVYKRSIVRNYKPLINRLKHYNGYDINYISKIGEKIDSNKPIFLFAPELGAINLHALSMSLQSKNLGEINTALNTLLVTSADSNLKISLVKYPELLDSLAILGMNLLSNLSQNVVPYHRNTSDYYYEDAGSNQYYVTQHDKMVDKIFEKVNNNATLTPNDSNDEKVTILVDSLTGNQLPTPTPTEMEPDLDTECFISMQSTSPAVKQWDLLPEPIRFLPNQFPLKIHRTPYLTSLKKIKDEIDDPFTKINTRGAEDPKVLINDQLSTISMILRNISFSDNNSRIMSRNFYLKRFISDLLWLVLIHPENFTCNRKILNFKKDLVIVLSNISHLLEIASSIDCLLILILVISFGQPKLNPMASSSSFGSESLTFNEFQLQWGKYQTFGVDILAKLFSLEKPNLNYFKSILLNKNTGNNLYDRNSNNNHKDKKLLRRLLNLYNDNNKNNNNRHNLLNDVVSFLFSAIPLQQVLSQSADPSLLIDQFSPVISQSLTSILVIVQKILPLSNEVFEISENNSDSNSNNNGNKDSSFNFNKNLPFVWLSSEENIGSGLLKLSEIILNINNSTSKNTLLQQQNYSKVLLPSINISCVQLIKCLVEKSICFENCLNNDPEILKKIASIPNLFPTDLEIFQLFTNPSVDIQIINQYQLLYNLKNDILTNLE

Assays:
Assay in all cases: cross-linking
Snf5 = molecular target: B1
[1] = molecular target: Snf2 with two FLAG tags at the C-terminus (S. cerevisiae (endogenous in yeast), UniProt P22082 1-1703)
Sequence of Snf2 with two FLAG tags at the C-terminus (P22082 whole entry): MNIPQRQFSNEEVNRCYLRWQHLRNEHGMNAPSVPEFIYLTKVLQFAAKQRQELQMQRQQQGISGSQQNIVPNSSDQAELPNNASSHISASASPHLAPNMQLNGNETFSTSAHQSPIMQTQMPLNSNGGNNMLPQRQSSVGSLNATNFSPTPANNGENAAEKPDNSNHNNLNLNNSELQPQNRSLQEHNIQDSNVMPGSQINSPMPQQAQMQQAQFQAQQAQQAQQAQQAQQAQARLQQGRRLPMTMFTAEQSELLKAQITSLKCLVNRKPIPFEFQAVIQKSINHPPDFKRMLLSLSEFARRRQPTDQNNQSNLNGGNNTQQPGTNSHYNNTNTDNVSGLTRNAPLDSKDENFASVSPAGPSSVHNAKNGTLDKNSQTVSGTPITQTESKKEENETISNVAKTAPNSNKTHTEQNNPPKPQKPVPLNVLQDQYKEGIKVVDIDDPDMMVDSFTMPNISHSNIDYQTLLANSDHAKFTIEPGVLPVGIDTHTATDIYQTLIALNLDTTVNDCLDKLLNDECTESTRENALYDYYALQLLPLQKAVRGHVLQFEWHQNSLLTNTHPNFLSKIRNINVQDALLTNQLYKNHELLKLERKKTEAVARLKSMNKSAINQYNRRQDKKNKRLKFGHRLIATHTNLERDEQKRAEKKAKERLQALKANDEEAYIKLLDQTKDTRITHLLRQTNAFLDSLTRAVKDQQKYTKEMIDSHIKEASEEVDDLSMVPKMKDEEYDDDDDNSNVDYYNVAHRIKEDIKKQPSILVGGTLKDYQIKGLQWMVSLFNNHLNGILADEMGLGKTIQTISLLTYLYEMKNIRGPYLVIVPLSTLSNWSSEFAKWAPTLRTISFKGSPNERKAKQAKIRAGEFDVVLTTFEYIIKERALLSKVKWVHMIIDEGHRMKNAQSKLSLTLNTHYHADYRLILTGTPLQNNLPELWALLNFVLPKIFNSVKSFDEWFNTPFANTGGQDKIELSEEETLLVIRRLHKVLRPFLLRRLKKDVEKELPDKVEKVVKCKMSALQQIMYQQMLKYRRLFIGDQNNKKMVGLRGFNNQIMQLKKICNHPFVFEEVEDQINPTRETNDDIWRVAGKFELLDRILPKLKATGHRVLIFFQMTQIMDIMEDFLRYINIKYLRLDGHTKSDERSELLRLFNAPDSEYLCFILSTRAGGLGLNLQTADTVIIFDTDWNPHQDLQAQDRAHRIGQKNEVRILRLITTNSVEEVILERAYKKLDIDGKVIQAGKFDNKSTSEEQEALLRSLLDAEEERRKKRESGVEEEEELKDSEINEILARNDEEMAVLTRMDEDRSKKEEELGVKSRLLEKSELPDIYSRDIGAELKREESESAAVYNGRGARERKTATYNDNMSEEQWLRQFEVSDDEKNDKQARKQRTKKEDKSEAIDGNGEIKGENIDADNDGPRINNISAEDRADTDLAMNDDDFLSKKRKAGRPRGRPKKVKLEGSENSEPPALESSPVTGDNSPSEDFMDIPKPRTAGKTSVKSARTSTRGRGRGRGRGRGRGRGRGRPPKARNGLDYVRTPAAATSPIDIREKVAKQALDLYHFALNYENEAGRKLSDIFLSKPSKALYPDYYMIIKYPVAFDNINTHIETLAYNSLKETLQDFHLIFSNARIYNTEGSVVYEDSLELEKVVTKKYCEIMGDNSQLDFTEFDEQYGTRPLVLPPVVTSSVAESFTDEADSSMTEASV

Swi1 = molecular target: B2

binding result (Snf5)	binding result [1]	binding result (Swi1)	Binder
binds	binds	–	Taf14 (natural protein, S. cerevisiae (endogenous in yeast), UniProt P35189 1-244, looked up) MVATVKRTIRIKTQQHILPEVPPVENFPVRQWSIEIVLLDDEGKEIPATIFDKVIYHLHPTFANPNRTFTDPPFRIEEQGWGGFPLDISVFLLEKAGERKIPHDLNFLQESYEVEHVIQIPLNKPLLTEELAKSGSTEETTANTGTIGKRRTTTNTTAEPKAKRAKTGSASTVKGSVDLEKLAFGLTKLNEDDLVGVVQMVTDNKTPEMNVTNNVEEGEFIIDLYSLPEGLLKSLWDYVKKNTE
binds	binds	–	Swi3 (natural protein, S. cerevisiae (endogenous in yeast), UniProt P32591 1-825, looked up) MENTLGEGSTVNASVDVDQHGNDNNSDSNANAAVAGVANTDTAGEESQQQDESLKDEATVPNTRDAESEAITVTAKQQPTMQANKLDSQETPSTEESRAQNVFGQDNEDSDNLFGETESSVSNNEANTPSIPTNPVDNENNKPAIKEDSTIQDSNGDVKNMEDVKIQKEEEPENNTVIEGVKEESQPDENTKEMDEVEEDDEDDDQPMISPDNSIFGDTKSESKQLGNTSSVANTPSEIPDAHKAEQEDIIEKTESVDKKVDSGEERNEQEREIMNDHSKSANPKKTTITRVEPETFEIPQAHEIVIPSYSKWFNLEKIHSIEVQSLPEFFTNRIPSKTPEVYMRYRNFMVNSYRLNPNEYFSVTTARRNVSGDAAALFRLHKFLTKWGLINYQVDSKLLPKNIEPPLTSQYSTRHDAPRGLFPFESYKPSVQLPDMAKLKKMMNTSDSESTLYKYLKESKRKYDEITHPPSTTDDENGDKNDNGGKMNNEVSTSTSMTGDANLLEEGETSRPLKKVKILEQIDENWSKEDLQKLLKGIQEFGADWYKVAKNVGNKSPEQCILRFLQLPIEDKFLYGDGNGKGDNDNGLGPLKYAPHLPFSKSENPVLSTIAFLVGLVNPKTVQSMTQRAIQSAESIKSQKEEISDQKPIEHIKEGSEIAISSLGYRSHIFATNEERQMNFLTNELIRLQMEKLDAKLNHLKKLEKFMELERKTLERQQENLLIQRLNFNQNSSKIVNVLSKCLNLISDSNINNSSVAEKEEIRSQIDHFKSMLSKPETLSIGKNPFNKPNIETGENHNGQSISNENDVKPISIEAPQFYRYWSA
binds	–	–	Snf6 (natural protein, S. cerevisiae (endogenous in yeast), UniProt P18888 1-332, looked up) MGVIKKKRSHHGKASRQQYYSGVQVGGVGSMGAINNNIPSLTSFAEENNYQYGYSGSSAGMNGRSLTYAQQQLNKQRQDFERVRLRPEQLSNIIHDESDTISFRSNLLKNFISSNDAFNMLSLTTVPCDRIEKSRLFSEKTIRYLMQKQHEMKTQAAELQEKPLTPLKYTKLIAAAEDGSRSTKDMIDAVFEQDSHLRYQPDGVVVHRDDPALVGKLRGDLREAPADYWTHAYRDVLAQYHEAKERIRQKEVTAGEAQDEASLQQQQQQDLQQQQQVVTTVASQSPHATATEKEPVPAVVDDPLENMFGDYSNEPFNTNFDDEFGDLDAVFF
–	binds	binds	B1
binds	binds	–	Swp82 (natural protein, S. cerevisiae (endogenous in yeast), UniProt P43554 1-623, looked up) MLGEDEGNTVLEKGNNPSVKQGEVGAVFIVPKILIREHERVILKQILQILDQDELVQPPLDKFPYKKLELPKYIDELKTRDATNTSYKMIQLDAYGEKKVGSNGELFGGRHYLFNTFTFTAHMGVLLVLLQDVIKVLYQSNATHDEDEFIVQHDQILVMETSEEQTKFLAKNGVIPEESKGSFKYITARSAFVEFGASVIAGGQRIVDDYWESLAKKQNLSSHQRVFKLSTNLISKISLLRPSFQNNRISNANEISANTNNTCTISTSKFESQYPIVTEQPSAEIREAYIENFAKGEHISAIVPGQSISGTLELSAQFRVPRYHSKNSFQQALQMKAMDIPIGRHEELLAQYESQAPDGSASISLPNHIPSVNPSNKPIKRMLSSILDINVSSSKNKKSEENEMIKPMNKGQHKNNTSLNINGWKFESLPLKSAENSGKQQYYRGLPLYEKNTLLERLKQLTPNEIKELEHLHDAVFVNTGLQNVRKVRTKKWKKYWQYKAGIPIGLKRSQLDEFKNKYLKDVLAQTSVTTNFNEITNTDETITTKRVPNPNFLGNCNIKDFKPPYIYSHVNKVPQNVAGDKTAVKLDTEVKNTNANPVVATDPVAAKPDNLANFSNEVAMNN
–	binds	–	B2
